# Results as given in PMC9368931, “Involvement of a Cluster of Basic Amino Acids in Phosphorylation-Dependent Functional Repression of the Ceramide Transport Protein CERT” (International Journal of Molecular Sciences, 2022).
# Where “and” joins values, the source holds several entries; their conditions need not be identical. Identical values can stand only once.
# B1: Recombinant human CERT S132A purified from Sf21 cells (natural protein, UniProt Q9Y5P4-2 1-598, looked up)
# chain: MSDNQSWNSSGSEEDPETESGPPVERCGVLSKWTNYIHGWQDRWVVLKNNALSYYKSEDETEYGCRGSICLSKAVITPHDFDECRFDISVNDSVWYLRAQDPDHRQQWIDAIEQHKTESGYGSESSLRRHGAMVSLVSGASGYSATSTSSFKKGHSLREKLAEMETFRDILCRQVDTLQKYFDACADAVSKDELQRDKVVEDDEDDFPTTRSDGDFLHSTNGNKEKLFPHVTPKGINGIDFKGEAITFKATTAGILATLSHCIELMVKREDSWQKRLDKETEKKRRTEEAYKNAMTELKKKSHFGGPDYEEGPNSLINEEEFFDAVEAALDRQDKIEEQSQSEKVRLHWPTSLPSGDAFSSVGTHRFVQKVEEMVQNHMTYSLQDVGGDANWQLVVEEGEMKVYRREVEENGIVLDPLKATHAVKGVTGHEVCNYFWNVDVRNDWETTIENFHVVETLADNAIIIYQTHKRVWPASQRDVLYLSVIRKIPALTENDPETWIVCNFSVDHDSAPLNNRCVRAKINVAMICQTLVSPPEGNQEISRDNILCKITYVANVNPGGWAPASVLRAVAKREYPKFLKRFTSYVQEKTAGKPILF
# notes: Ceramide transport protein CERT (GPBPΔ26), human, printed length 598 amino acids; The template plasmid is named pBS/nHAcFL-CERT, which may mean a further C-terminal FLAG tag; Mainly a homo-trimer by cross-linking and blue native PAGE; not shown: HA, N-terminal, kept
# B2: Recombinant human CERT S132A/13A purified from Sf21 cells (natural protein, UniProt Q9Y5P4-2 1-598, looked up)
# chain: MSDNQSWNSSGSEEDPETESGPPVERCGVLSKWTNYIHGWQDRWVVLKNNALSYYKSEDETEYGCRGSICLSKAVITPHDFDECRFDISVNDSVWYLRAQDPDHRQQWIDAIEQHKTESGYGSESSLRRHGAMVSLVSGASGYSATSTSSFKKGHSLREKLAEMETFRDILCRQVDTLQKYFDACADAVSKDELQRDKVVEDDEDDFPTTRSDGDFLHSTNGNKEKLFPHVTPKGINGIDFKGEAITFKATTAGILATLSHCIELMVAAEDSWQAALDAETEAAAATEEAYANAMTELAAASHFGGPDYEEGPNSLINEEEFFDAVEAALDRQDKIEEQSQSEKVRLHWPTSLPSGDAFSSVGTHRFVQKVEEMVQNHMTYSLQDVGGDANWQLVVEEGEMKVYRREVEENGIVLDPLKATHAVKGVTGHEVCNYFWNVDVRNDWETTIENFHVVETLADNAIIIYQTHKRVWPASQRDVLYLSVIRKIPALTENDPETWIVCNFSVDHDSAPLNNRCVRAKINVAMICQTLVSPPEGNQEISRDNILCKITYVANVNPGGWAPASVLRAVAKREYPKFLKRFTSYVQEKTAGKPILF
# notes: Ceramide transport protein CERT (GPBPΔ26), human, printed length 598 amino acids; The template plasmid is named pBS/nHAcFL-CERT, which may mean a further C-terminal FLAG tag; also called S132/13A; not shown: HA, N-terminal, kept
# What was measured:
# [1] = target: the molecule itself; assay: native gel or EMSA; blue native PAGE of purified CERT (10 ng), 1% digitonin, 0.25% CBB G-250, 4-16% Bis-Tris gel; anti-HA western blot
# [2] = target: the molecule itself; assay: cross-linking; purified CERT (10.8 ng in 30 μL of 50 mM HEPES-NaOH pH 7.4) with EGS (0.1-1.6 mM) on ice for 2 h; SDS-PAGE (6%) and anti-HA western blot
Protein,stoichiometry N [1],stoichiometry N [2]
B1,3,–
B2,–,2 and 3
